{"source": "patent US8361510B2", "about": "“Nanogels for cellular delivery of therapeutics” (Georgia Tech Research Corporation, priority 2008, dated 2013)", "key": {"[1]": {"experiment": "siRNA release from nanogels in PBS containing 10% fetal bovine serum", "assay_type": "physicochemical", "details": "after the first 12 hours, 37° C., PBS with 10% fetal bovine serum", "procedure": "[formula] The release of solutes from nanogels was performed in 10% serum to simulate physiological conditions. Release experiments were performed by dispersing 200 μL of loaded nanogels in 2.20 mL of 0.01 M phosphate buffered saline containing 10% fetal bovine serum (equilibrated at 37° C.) in 3.2 mL polycarbonate centrifuge tubes (Beckman Coulter, USA). The nanogel suspension was allowed to incubate at 37° C. while shaking. At specific time points, the tubes were centrifuged for […] at 687 000×g (at 37° C.), and an aliquot of supernatant (0.75 mL) was removed for UV-vis analysis. This volume was replaced with fresh buffer. […] The cumulative siRNA released was calculated by calculating the total moles detected in the supernatant as a function of time, as described in Equation 2.\nAll release studies were performed in triplicate for statistical analysis, using identical nanogel loading and release conditions."}, "[2]": {"tested_on": "Hey cells", "experiment": "Nanogel/siGLO uptake by confocal microscopy, Hey cells", "assay_type": "cell-based", "details": "Hey cells (high EphA2), 4 h incubation, serum-containing medium", "procedure": "Cell transfection using nanogels. Hey or BG-1 cells were plated onto an 8-well chamber slide (5×10^3 cells/well), and the cells allowed to adhere overnight at 37° C. in a 5% CO2 atmosphere. After washing the wells with PBS and replacing the media, siGLO-loaded/YSA-conjugated nanogels, unloaded YSA-conjugated nanogels, pNIPMAm nanogels, or siGLO only were added to wells. Cells were incubated in each case for 4 h. In experiments where preincubation of ephrin-A1 was used to initiate internalization and degradation of EphA2, ephrin-A1 was added to the media at a final concentration of the ligand of 2 μg/mL. After incubation, the cells were washed with PBS, and the medium replaced. For fixation prior to confocal imaging, the cells were incubated with 2% (v/v) paraformaldehyde for 30 min\nConfocal microscopy. A Zeiss LSM510 confocal microscope was used to take cell images. Cells were incubated with nanogels for 4 h. After 4 h, the cells were washed and then fixed on the slide. […]\nFollowing loading with siGLO, nanogels were incubated with either Hey (high EphA2 expression) or BG-1 (low EphA2 expression) cells in order to compare the levels of targeted uptake by ovarian cancer cells. Uptake of the nanogels into the cells was followed using a fluorescent tag (AFA) incorporated into the nanogel core as well as by the fluorescence of the siGLO. […]"}, "[3]": {"tested_on": "Hey cells", "experiment": "Trypan blue exclusion assay", "assay_type": "cell-based", "procedure": "Toxicity Studies—Trypan blue exclusion assay. Hey cells were plated onto an 8-well chamber slide (1×10^4 cells/well) and allowed to adhere overnight at 37° C. and 5% CO2. The media was removed, the wells washed with PBS, and the medium replaced. PNIPMAm nanogels, YSA-conjugated nanogels, and SCR-conjugated nanogels were added to cells and incubated for 72 h. Untreated cells were used as controls. After 72 h, the cells washed with PBS, and a 1:1 solution of trypan blue was added to each well. After 1 min, the trypan blue was removed, the cells were washed with PBS, fixed with 2% (v/v) paraformaldehyde, and air dried. Each well was then viewed via bright field microscopy to determine the number of stained (dead) versus unstained cells. Five fields were viewed for each treatment."}}, "note": "Where no end group is shown, it is not given here."}
{"substance": "YSA-conjugated nanogels: core/shell pNIPMAm nanogels with YSA peptide coupled to shell amines via maleimide (EMCA) (YSAYPDSVPMMSC; also: coupled to nanogel shell amines via maleimide (EMCA))", "values": [{"measurement": "siRNA retained in the nanogels", "setting": "[1]", "value": "approximately 70%"}, {"measurement": "nanogel uptake (green AFA fluorescence)", "setting": "[2]", "value": "strong green fluorescence"}, {"measurement": "blue (dead) cells", "setting": "[3]", "value": "not observed"}]}
